B1: CPP-RRM3: recombinant RRM3 (441-500) conjugated with the Penetratin cell penetrating peptide, myc tag (SEQ ID NO: 32) (protein)
chain: RQIKIWFQNRRMKWKKGWDTEIKDDVIEECNKHGGVIHIYVDKNSAQGNVYVKCPSIAAAIAAVNALHGRWFAGKMTAAYVPEQKLISEEDL
modifications: RRM3-derived synthetic sequence
B2: RRM3: recombinant RRM3 (441-500)-myc peptide without Penetratin (SEQ ID NO: 33) (protein)
chain: GWDTEIKDDVIEECNKHGGVIHIYVDKNSAQGNVYVKCPSIAAAIAAVNALHGRWFAGKMTAAYVPEQKLISEEDL
modifications: RRM3-derived synthetic sequence

Tests used:
[1] = test system: T47D cells; assay: Crystal violet assay / cell counts of T47D cells treated with cell penetrating peptides; format: cell-based, human; conditions: 5 μM peptide in media, 72 hrs
Experimental: FIG. 9. […] A) Amino acid sequences of CPP-RRM1-myc, and RRM3-(441-500)-myc (SEQ ID NO: 33) and CPP-RRM3 (441-500)-myc (SEQ ID NO: 32) peptides. The sequence of Penetratin is in grey, myc tag in light grey and RRM3 in black. B) Coomassie staining showing GST-tagged, purified proteins. C, D) Representative light microscopic images of crystal violet stained cells taken after 3 days of treatment with 5 uM CPP-RRM3 (441-500)-myc. E, F) Crystal violet assay of cell numbers during treatment with 5 uM CPP-RRM3 (441-500) myc. G) Quantification of total number of cells before and after 3 days of treatment with CPP RRM3. H, I, J) Representative light microscopic images of crystal violet stained T47D cells taken after 3 days of treatment with peptides listed at top. K, L, M) Crystal violet assay of number T47D cells over 3 days of treatment with peptides listed. N) Quantification of total number of T47D cells before and after 3 days of treatment.
(§1) Crystal violet assay/optical density method of cell quantitation: 5×10^5 cells were plated per well in 6-well tissue culture plates. At times indicated cells were washed with PBS and fixed for 10 minutes in a 10% formalin solution. Cells were then rinsed with distilled water and subsequently stained with 100 μl 0.1% crystal violet solution for 30 min. Stained cells were rinsed with water to remove the excess traces of the staining solution. Cell-associated crystal violet dye was extracted with 500 μl of 10% acetic acid. Aliquots were collected and optical density was measured at 590 nm wavelength. Each point on the curve shown represents 3 independent wells.
(§2) Cell counts for CPP treatments: Cells were plated in 6-well dishes and incubated with 5 μM concentration of peptides. At days noted, cells were trypsinized and counted using a hemocytometer.
Whether recombinant RRM3 conjugated with the Penetratin cell penetrating peptide (Dupont E, et al., Methods Mol Biol. 1324:29-37 (2015)) (FIGS. 9A, B) affects growth of T47D and PME cells was tested. Equal numbers of PME and T47D cells were seeded and incubated with 5 μM peptide in media for 72 hrs. […]

[2] = test system: PME cells; assay: Crystal violet assay / cell counts of primary mammary epithelial cells (PMEs) treated with cell penetrating peptides; format: cell-based, human; conditions: PME cells, 5 μM peptide in media, 72 hrs
Experimental: as §1, §2
Whether recombinant RRM3 conjugated with the Penetratin cell penetrating peptide (Dupont E, et al., Methods Mol Biol. 1324:29-37 (2015)) (FIGS. 9A, B) affects growth of T47D and PME cells was tested. Equal numbers of PME and T47D cells were seeded and incubated with 5 μM peptide in media for 72 hrs. […] Compared to CPP-coupled RRM3, CPP-RRM1 and RRM3 had no effect (FIGS. 9H-N). […]

| Molecule | number of breast cancer cells [1] | number of breast cancer cells ([1]; listed as Cell-penetrating CAPERα RRM3) | number of PMEs [2] |
| --- | --- | --- | --- |
| B1 | dramatically decreased | disrupts breast cancer cell growth | no effect |
| B2 | no effect |  |  |

From patent US20220265769A1, “COMPOSITIONS AND METHODS OF TREATMENT FOR BREAST CANCER INVOLVING A NOVEL CAPER?-MLL1 COMPLEX” (Geisinger Health, priority 2019, published 2022)
